Measured values: US20260151389A1, “Use of Tetramethylpyrazine Nitrone Derivatives In The Treatment of Ischemic Stroke” (GUANGZHOU MAGPIE PHARMACEUTICALS CO., L.T.D., priority 2021, published 2026)

Tested on: patients with acute ischemic stroke
Assay: multicenter, randomized, double-blind, parallel clinical trial in acute ischemic stroke
Type: in vivo, human
Conditions: thrombolytic group
Description: The present invention adopts a multicenter, randomized, double-blind, parallel trial clinical research design. The patients with acute ischemic stroke included in the clinical trial-center as subjects (all signed informed consent forms) were divided into non-thrombolytic group and thrombolytic group. The non-thrombolytic group consists of the saline group and the TBN group. The thrombolytic group consists of the t-PA group and the combination group of TBN+t-PA.
Subjects of the tests: Patients diagnosed with acute ischemic stroke were selected by clinical trial centers based on the diagnostic criteria of “Chinese Guidelines for the Diagnosis and Treatment of Acute Ischemic Stroke (2018)”.
Administration method: TBN (1400 mg) is dissolved in a sodium chloride injection bag (specification: 100 mL) and administered intravenously for 30 minutes. Dose of t-PA: 0.9 mg/Kg/dose; usage: added to physiological saline, 10% of the dose is administered via injected intravenous injection immediately within 1-2 minutes, and the remaining 90% is administered via intravenous drop infusion within 60 minutes. t-PA is administered only once on the first day of acute ischemic stroke. The medication schedule of TBN: D1-D7 administered twice a day, with an interval of 12 hours, for 7 consecutive days.

B1: t-PA: tissue type plasminogen activator ateplase (t-PA), thrombolytic drug (protein, UniProt P00750 36-562, looked up)
Tissue-type plasminogen …: SYQVICRDEKTQMIYQQHQSWLRPVLRSNRVEYCWCNSGRAQCHSVPVKSCSEPRCFNGGTCQQALYFSDFVCQCPEGFAGKCCEIDTRATCYEDQGISYRGTWSTAESGAECTNWNSSALAQKPYSGRRPDAIRLGLGNHNYCRNPDRDSKPWCYVFKAGKYSSEFCSTPACSEGNSDCYFGNGSAYRGTHSLTESGASCLPWNSMILIGKVYTAQNPSAQALGLGKHNYCRNPDGDAKPWCHVLKNRRLTWEYCDVPSCSTCGLRQYSQPQFRIKGGLFADIASHPWQAAIFAKHRRSPGERFLCGGILISSCWILSAAHCFQERFPPHHLTVILGRTYRVVPGEEEQKFEVEKYIVHKEFDDDTYDNDIALLQLKSDSSRCAQESSVVRTVCLPPADLQLPDWTECELSGYGKHEALSPFYSERLKEAHVRLYPSSRCTSQHLLNRTVTDNMLCAGDTRSGGPQANLHDACQGDSGGPLVCLNDGRMTLVGIISWGLGCGQKDVPGVYTKVTNYLDWIRDNMRP
- efficacy after 90 days compared with after 30 days of treatment: no significant difference in efficacy
- Lsmeans mRS (90th day): 1.61
